Assay results published in the supplement of paper PMC11316812.
± gives the standard deviation of the averaged measurements.

Columns and labels:
hTERT-HMEC = test: percentage of EdU-negative (G0-arrested) nuclei per well, 72 h; higher = more G0 arrest; details: reference: sequence is the full UniProt precursor, the tested protein was the secreted form or ectodomain
MCF7 = test: as above; details: reference: sequence is the full UniProt precursor, the tested protein was the secreted form or ectodomain
[1] = protein concentration 0.0225 µM
[2] = protein concentration 0.02823 µM
[3] = protein concentration 0.2823 µM
[4] = protein concentration 0.0357143 µM
[5] = protein concentration 0.357143 µM
[6] = protein concentration 0.00775 µM
[7] = protein concentration 0.0775 µM
[8] = protein concentration 0.0219975 µM
[9] = protein concentration 0.219975 µM
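Note: secreted proteins added to cultured cells, EdU pulse at the end, nuclei found by Hoechst imaging, EdU status from nuclear versus surrounding ring intensity ratio, PBS as neutral control.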

“MLSGRLVLGLVSMAGRVCLCQGSAGSGAIGPVEAAIRTKLEEALSPEVLELRNESGGHAVPPGSETHFRVAVVSSRFEGLSPLQRHRLVHAALAEELGGPVHALAIQARTPAQWRENSQLDTSPPCLGGNKKTLGTP [Q9Y3E2]” was tested, and the “percentage of EdU-negative” value (hTERT-HMEC; [1]) was 5.42 ± 0.18%, the “percentage of EdU-negative” value (hTERT-HMEC; protein concentration 0.225 µM) was 5.59 ± 0.52% and the “percentage of EdU-negative” value (MCF7; [1]) was 28 ± 1.9%. The “percentage of EdU-negative” value (MCF7; protein concentration 0.225 µM) was 27.3 ± 2.5%.

With “MERASCLLLLLLPLVHVSATTPEPCELDDEDFRCVCNFSEPQPDWSEAFQCVSAVEVEIHAGGLNLEPFLKRVDADADPRQYADTVKALRVRRLTVGAAQVPAQLLVGALRVLAYSRLKELTLEDLKITGTMPPLPLEATGLALSSLRLRNVSWATGRSWLAELQQWLKPGLKVLSIAQAHSPAFSCEQVRAFPALTSLDLSDNPGLGERGLMAALCPHKFPAIQNLALRNTGMETPTGVCAALAAAGVQPHSLDLSHNSLRATVNPSAPRCMWSSALNSLNLSFAGLEQVPKGLPAKLRVLDLSCNRLNRAPQPDELPEVDNLTLDGNPFLVPGTALPHEGSMNSGVVPACARSTLSVGVSGTLVLLQGARGFA” the “percentage of EdU-negative” value (hTERT-HMEC; [2]) was 4.9 ± 0.54%, the “percentage of EdU-negative” value (hTERT-HMEC; [3]) was 8.12 ± 1.2% and the “percentage of EdU-negative” value (MCF7; [2]) was 26.8 ± 1.2%. For the same sequence, the “percentage of EdU-negative” value (MCF7; [3]) was 27.2 ± 0.7%.

With “MALPSRILLWKLVLLQSSAVLLHSGSSVPAAAGSSVVSESAVSWEAGARAVLRCQSPRMVWTQDRLHDRQRVLHWDLRGPGGGPARRLLDLYSAGEQRVYEARDRGRLELSASAFDDGNFSLLIRAVEETDAGLYTCNLHHHYCHLYESLAVRLEVTDGPPATPAYWDGEKEVLAVARGAPALLTCVNRGHVWTDRHVEEAQQVVHWDRQPPGVPHDRADRLLDLYASGERRAYGPLFLRDRVAVGADAFERGDFSLRIEPLEVADEGTYSCHLHHHYCGLHERRVFHLTVAEPHAEPPPRGSPGNGSSHSGAPGPDPTLARGHNVINVIVPESRAHFFQQLGYVLATLLLFILLLVTVLLAARRRRGGYEYSDQKSGKSKGKDVNLAEFAVAAGDQMLYRSEDIQLDYKNNILKERAELAHSPLPAKYIDLDKGFRKENCK [Q9BRK3]” the “percentage of EdU-negative” value (hTERT-HMEC; [4]) was 4.84 ± 0.53%, the “percentage of EdU-negative” value (hTERT-HMEC; [5]) was 5.72 ± 0.27% and the “percentage of EdU-negative” value (MCF7; [4]) was 23.2 ± 2.3%. The “percentage of EdU-negative” value (MCF7; [5]) was 25 ± 0.57%.

With “MRRPAAVPLLLLLCFGSQRAKAATACGRPRMLNRMVGGQDTQEGEWPWQVSIQRNGSHFCGGSLIAEQWVLTAAHCFRNTSETSLYQVLLGARQLVQPGPHAMYARVRQVESNPLYQGTASSADVALVELEAPVPFTNYILPVCLPDPSVIFETGMNCWVTGWGSPSEEDLLPEPRILQKLAVPIIDTPKCNLLYSKDTEFGYQPKTIKNDMLCAGFEEGKKDACKGDSGGPLVCLVGQSWLQAGVISWGEGCARQNRPGVYIRVTAHHNWIHRIIPKLQFQPARLGGQK [Q9BQR3]” the “percentage of EdU-negative” value (hTERT-HMEC; [6]) was 4.44 ± 0.22%, the “percentage of EdU-negative” value (hTERT-HMEC; [7]) was 6.65 ± 0.73% and the “percentage of EdU-negative” value (MCF7; [6]) was 25.18 ± 0.16%. The “percentage of EdU-negative” value (MCF7; [7]) was 26.7 ± 2.6%.

In the case of “MRRRRAGGRTMVERASKFVLVVAGSVCFMLILYQYAGPGLSLGAPGGRAPPDDLDLFPTPDPHYEKKYYFPVRELERSLRFDMKGDDVIVFLHIQKTGGTTFGRHLVQNVRLEVPCDCRPGQKKCTCYRPNRRETWLFSRFSTGWSCGLHADWTELTNCVPGVLDRRDSAALRTPRKFYYITLLRDPVSRYLSEWRHVQRGATWKTSLHMCDGRTPTPEELPPCYEGTDWSGCTLQEFMDCPYNLANNRQVRMLADLSLVGCYNLSFIPEGKRAQLLLESAKKNLRGMAFFGLTEFQRKTQYLFERTFNLKFIRPFMQYNSTRAGGVEVDEDTIRRIEELNDLDMQLYDYAKDLFQQRYQYKRQLERREQRLRSREERLLHRAKEALPREDADEPGRVPTEDYMSHIIEKW”, the “percentage of EdU-negative” value (hTERT-HMEC; protein concentration 0.01 µM) is reported as 5.25 ± 0.85%, the “percentage of EdU-negative” value (hTERT-HMEC; protein concentration 0.1 µM) is reported as 31.7 ± 5.8% and the “percentage of EdU-negative” value (MCF7; protein concentration 0.01 µM) is reported as 25.6 ± 0.82%. The “percentage of EdU-negative” value (MCF7; protein concentration 0.1 µM) was 28.9 ± 4%.

For “MLPPWTLGLLLLATVRGKEVCYGQLGCFSDEKPWAGTLQRPVKLLPWSPEDIDTRFLLYTNENPNNFQLITGTEPDTIEASNFQLDRKTRFIIHGFLDKAEDSWPSDMCKKMFEVEKVNCICVDWRHGSRAMYTQAVQNIRVVGAETAFLIQALSTQLGYSLEDVHVIGHSLGAHTAAEAGRRLGGRVGRITGLDPAGPCFQDEPEEVRLDPSDAVFVDVIHTDSSPIVPSLGFGMSQKVGHLDFFPNGGKEMPGCKKNVLSTITDIDGIWEGIGGFVSCNHLRSFEYYSSSVLNPDGFLGYPCASYDEFQESKCFPCPAEGCPKMGHYADQFKGKTSAVEQTFFLNTGESGNFTSWRYKISVTLSGKEKVNGYIRIALYGSNENSKQYEIFKGSLKPDASHTCAIDVDFNVGKIQKVKFLWNKRGINLSEPKLGASQITVQSGEDGTEYNFCSSDTVEENVLQSLYPC”, the “percentage of EdU-negative” value (hTERT-HMEC; [1]) was 4.69 ± 0.62%, the “percentage of EdU-negative” value (hTERT-HMEC; protein concentration 0.225 µM) was 5.7 ± 0.076% and the “percentage of EdU-negative” value (MCF7; [1]) was 25.9 ± 0.35%. The “percentage of EdU-negative” value (MCF7; protein concentration 0.225 µM) was 26.41 ± 0.1%.

With “MCHQQLVISWFSLVFLASPLVAIWELKKDVYVVELDWYPDAPGEMVVLTCDTPEEDGITWTLDQSSEVLGSGKTLTIQVKEFGDAGQYTCHKGGEVLSHSLLLLHKKEDGIWSTDILKDQKEPKNKTFLRCEAKNYSGRFTCWWLTTISTDLTFSVKSSRGSSDPQGVTCGAATLSAERVRGDNKEYEYSVECQEDSACPAAEESLPIEVMVDAVHKLKYENYTSSFFIRDIIKPDPPKNLQLKPLKNSRQVEVSWEYPDTWSTPHSYFSLTFCVQVQGKSKREKKDRVFTDKTSATVICRKNASISVRAQDRYYSSSWSEWASVPCS” the “percentage of EdU-negative” value (hTERT-HMEC; [8]) was 5.23 ± 1.3%, the “percentage of EdU-negative” value (hTERT-HMEC; [9]) was 7.74 ± 1.1% and the “percentage of EdU-negative” value (MCF7; [8]) was 27.4 ± 2.1%. The “percentage of EdU-negative” value (MCF7; [9]) was 27.5 ± 0.78%.
